Data reported in article PMC5972919, “A strategy for L-isoleucine dioxygenase screening and 4-hydroxyisoleucine production by resting cells” (Bioengineered, 2017).

Substrate: CC[C@H](C)[C@H](N)C(=O)O
Assay: HPLC of 4-hydroxyisoleucine after precolumn derivatization; Michaelis-Menten fit
Type: biochemical, Bacillus thuringiensis
Conditions: apparent, L-Ile 0.02 to 5 mM, 10 mM alpha-ketoglutarate, 5 mM FeSO4, 10 mM ascorbic acid, 100 mM Tris-HCl pH 7.0, 30 °C
From the text: HPLC of 4-hydroxyisoleucine after precolumn derivatization; Michaelis-Menten fit on IDO (L-isoleucine dioxygenase)

B1: IDO (L-isoleucine dioxygenase) (Bacillus thuringiensis) (protein)
chain: MKMSGFSIEEKVHEFESKGFLEISNEIFLQEEENHRLLTQAQLDYYNLEDDAYGECRAGSYSRYIKYVDSPDYILDNSNDYFQSKEYNYDDGGKVRQFHSINDSFLYNPLIQNIVRFDTEFAFKTNIIDTSKDLIIGLHQVRYKATKERPSFSSPIWLHKDDEPVVFLHLMNLSNTAIGGDNLIANSPREINQFISLKEPLETLVFGQKVFHAVTPLGTECSTEAFRDILLVTFSYKETK
notes: motif His159-X-Asp161-X50-His212
- Km: 200 µM
- Vmax: 2.18 µmol/min/mg
- kcat: 0.0727 s⁻¹
- kcat/Km: 363 M⁻¹ s⁻¹
